Laboratory results reported in the Human Domainome abundance scans (Beltran et al. 2025).
± gives the uncertainty stated by the source.

B1: Proto-oncogene vav, residues 782 to 842; numbered along this chain, P15498 (parent)
chain: KYFGTAKARYDFCARDRSELSLKEGDIIKILNKKGQQGWWRGEIYGRVGWFPANYVEEDYS

Variants of: B1
Test: abundance fitness (aPCA) (normalised: wild type 0, dead -1); higher = more abundant; growth selection in yeast, the domain comes from the species named
Conditions: Homo sapiens

Row | Variant | abundance fitness
1 | KYFGTAKARYDFCARDRSELSLKEGDIIKILNKKGQQGWWRGEIYGRVGWFPASYVEEDYS [N54S] | -0.054 ± 0.053
2 | KYFGTAKARYDFCARDRSELSLKEGDIIKILNKKGQQGWWRGEIYGRVGWFPAFYVEEDYS [N54F] | -0.406 ± 0.12
3 | KYFGTAKARYDFCARDRSELSLKEGDIIKILNKKGQQGWWRGEIYGRVGWFPADYVEEDYS [N54D] | 0.064 ± 0.087
4 | KYFGTAKARYDFCARDRSELSLKEGDIIKILNKKGQQGWWRGEIYGRVGWFPAHYVEEDYS [N54H] | -0.185 ± 0.15
5 | KYFGTAKARYDFCARDRSELSLKEGDIIKILNKKGQQGWWRGEIYGRVGWFPALYVEEDYS [N54L] | -0.219 ± 0.065
6 | KYFGTAKARYDFCARDRSELSLKEGDIIKILNKKGQQGWWRGEIYGRVGWFPARYVEEDYS [N54R] | 0.055 ± 0.07
7 | KYFGTAKARYDFCARDRSELSLKEGDIIKILNKKGQQGWWRGEIYGRVGWFPAAYVEEDYS [N54A] | 0.051 ± 0.074
8 | KYFGTAKARYDFCARDRSELSLKEGDIIKILNKKGQQGWWRGEIYGRVGWFPACYVEEDYS [N54C] | -0.017 ± 0.12
9 | KYFGTAKARYDFCARDRSELSLKEGDIIKILNKKGQQGWWRGEIYGRVGWFPAPYVEEDYS [N54P] | -0.29 ± 0.089
10 | KYFGTAKARYDFCARDRSELSLKEGDIIKILNKKGQQGWWRGEIYGRVGWFPAEYVEEDYS [N54E] | 0.05 ± 0.086
11 | KYFGTAKARYDFCARDRSELSLKEGDIIKILNKKGQQGWWRGEIYGRVGWFVANYVEEDYS [P52V] | -0.787 ± 0.15
12 | KYFGTAKARYDFCARDRSELSLKEGDIIKILNKKGQQGWWRGEIYGRVGWFQANYVEEDYS [P52Q] | -0.528 ± 0.13
13 | KYFGTAKARYDFCARDRSELSLKEGDIIKILNKKGQQGWWRGEIYGRVGWFYANYVEEDYS [P52Y] | -1.01 ± 0.34
14 | KYFGTAKARYDFCARDRSELSLKEGDIIKILNKKGQQGWWRGEIYGRVGWFTANYVEEDYS [P52T] | -0.778 ± 0.17
15 | KYFGTAKARYDFCARDRSELSLKEGDIIKILNKKGQQGWWRGEIYGRVGWFKANYVEEDYS [P52K] | -0.498 ± 0.21
16 | KYFGTAKARYDFCARDRSELSLKEGDIIKILNKKGQQGWWRGEIYGRVGWFDANYVEEDYS [P52D] | -0.929 ± 0.36
17 | KYFGTAKARYDFCARDRSELSLKEGDIIKILNKKGQQGWWRGEIYGRVGWFWANYVEEDYS [P52W] | -0.943 ± 0.18
18 | KYFGTAKARYDFCARDRSELSLKEGDIIKILNKKGQQGWWRGEIYGRVGWFFANYVEEDYS [P52F] | -0.957 ± 0.43
19 | KYFGTAKARYDFCARDRSELSLKEGDIIKILNKKGQQGWWRGEIYGRVGWFLANYVEEDYS [P52L] | -0.89 ± 0.12
20 | KYFGTAKARYDFCARDRSELSLKEGDIIKILNKKGQQGWWRGEIYGRVGWFNANYVEEDYS [P52N] | -0.761 ± 0.29
21 | KYFGTAKARYDFCARDRSELSLKEGDIIKILNKKGQQGWWRGEIYGRVGWFCANYVEEDYS [P52C] | -1.02 ± 0.34
22 | KYFGTAKARYDFCARDRSELSLKEGDIIKILNKKGQQGWWRGEIYGRVGWFSANYVEEDYS [P52S] | -0.95 ± 0.15

Row | Variant | abundance fitness
23 | KYFGTAKARYDFCARDRSELSLKEGDIIKILNKKGQQGWWRGEIYGRVGWFAANYVEEDYS [P52A] | -0.909 ± 0.22
24 | KYFGTAKARYDFCARDRSELSLKEGDIIKILNKKGQQGWWRGEIYGRVGWFRANYVEEDYS [P52R] | -0.89 ± 0.099
25 | KYFGTAKARYDFCARDRSELSLKEGDIIKILNKKGQQGWWRGEIYGRVGWFMANYVEEDYS [P52M] | -0.38 ± 0.19
26 | KYFGTAKARYDFCARDRSELSLKEGDIIKILNKKGQQGWWRGEIYGRVGWFPLNYVEEDYS [A53L] | -0.505 ± 0.064
27 | KYFGTAKARYDFCARDRSELSLKEGDIIKILNKKGQQGWWRGEIYGRVGWFPTNYVEEDYS [A53T] | -0.227 ± 0.08
28 | KYFGTAKARYDFCARDRSELSLKEGDIIKILNKKGQQGWWRGEIYGRVGWFPFNYVEEDYS [A53F] | -0.472 ± 0.13
29 | KYFGTAKARYDFCARDRSELSLKEGDIIKILNKKGQQGWWRGEIYGRVGWFPKNYVEEDYS [A53K] | -0.243 ± 0.1
30 | KYFGTAKARYDFCARDRSELSLKEGDIIKILNKKGQQGWWRGEIYGRVGWFPRNYVEEDYS [A53R] | -0.151 ± 0.062
31 | KYFGTAKARYDFCARDRSELSLKEGDIIKILNKKGQQGWWRGEIYGRVGWFPDNYVEEDYS [A53D] | -0.641 ± 0.16
32 | KYFGTAKARYDFCARDRSELSLKEGDIIKILNKKGQQGWWRGEIYGRVGWFPGNYVEEDYS [A53G] | -0.4 ± 0.056
33 | KYFGTAKARYDFCARDRSELSLKEGDIIKILNKKGQQGWWRGEIYGRVGWFPENYVEEDYS [A53E] | -0.208 ± 0.099
34 | KYFGTAKARYDFCARDRSELSLKEGDIIKILNKKGQQGWWRGEIYGRVGWFPHNYVEEDYS [A53H] | -0.011 ± 0.18
35 | KYFGTAKARYDFCARDRSELSLKEGDIIKILNKKGQQGWWRGEIYGRVGWFPQNYVEEDYS [A53Q] | -0.243 ± 0.13
36 | KYFGTAKARYDFCARDRSELSLKEGDIIKILNKKGQQGWWRGEIYGRVGWFPPNYVEEDYS [A53P] | -0.226 ± 0.096
37 | KYFGTAKARYDFCARDRSELSLKEGDIIKILNKKGQQGWWRGEIYGRVGWFPVNYVEEDYS [A53V] | -0.301 ± 0.061
38 | KYFGTAKARYDFCARDRSELSLKEGDIIKILNKKGQQGWWRGEIYGRVGWFPCNYVEEDYS [A53C] | -0.078 ± 0.1
39 | KYFGTAKARYDFCARDRSELSLKEGDIIKILNKKGQQGWWRGEIYGRVGWFPSNYVEEDYS [A53S] | -0.082 ± 0.063
40 | KYFGTAKARYDFCARDRSELSLKEGDIIKILNKKGQQGWWRGEIYGRVGWFPYNYVEEDYS [A53Y] | -0.341 ± 0.19
41 | KYFGTAKARYDFCARDRSELSLKEGDIIKILNKKGQQGWWRGEIYGRVGWFPNNYVEEDYS [A53N] | -0.444 ± 0.14
42 | KYFGTAKARYDFCARDRSELSLKEGDIIKILNKKGQQGWWRGEIYGRVGWFPINYVEEDYS [A53I] | -0.314 ± 0.15
43 | KYFGTAKARYDFCARDRSELSLKEGDIIKILNKKGQQGWWRGEIYGRVGWFPWNYVEEDYS [A53W] | -0.451 ± 0.079
44 | KYFGTAKARYDFCARDRSELSLKEGDIIKILNKKGQQGWWRGEIYGRVGWFPMNYVEEDYS [A53M] | -0.178 ± 0.11
